Measured values from publication PMC9482650, “Quantitative fragmentomics allow affinity mapping of interactomes” (Nature Communications, 2022).

T1: LNX2_2, Q8N448
T1 sequence (Q8N448 334-432, limits assumed, looked up): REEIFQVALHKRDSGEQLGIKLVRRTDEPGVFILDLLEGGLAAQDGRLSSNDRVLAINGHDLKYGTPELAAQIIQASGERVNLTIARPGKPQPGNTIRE

T2: APBA2_1, Q99767
T2 sequence (Q99767 563-664, limits assumed, looked up): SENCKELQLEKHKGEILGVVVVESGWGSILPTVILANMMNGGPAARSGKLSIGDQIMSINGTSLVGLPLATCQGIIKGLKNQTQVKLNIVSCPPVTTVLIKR

T3: APBA1_2, Q02410
T3 sequence (Q02410 742-832, limits assumed, looked up): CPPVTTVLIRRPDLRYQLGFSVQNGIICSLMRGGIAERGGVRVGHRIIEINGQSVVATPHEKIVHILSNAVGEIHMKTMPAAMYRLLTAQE

T4: FRMPD1, Q5SYB0
T4 sequence (Q5SYB0 52-145, limits assumed, looked up): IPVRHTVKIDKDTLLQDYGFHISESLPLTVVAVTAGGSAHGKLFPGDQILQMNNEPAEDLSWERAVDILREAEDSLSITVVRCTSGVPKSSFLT

T5: GRIP1_5, Q9Y3R0
T5 sequence (Q9Y3R0 568-668, limits assumed, looked up): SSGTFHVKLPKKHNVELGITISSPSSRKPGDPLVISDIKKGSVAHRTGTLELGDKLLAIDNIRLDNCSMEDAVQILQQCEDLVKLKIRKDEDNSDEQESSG

T6: DLG3_2, Q92796
T6 sequence (Q92796 221-321, limits assumed, looked up): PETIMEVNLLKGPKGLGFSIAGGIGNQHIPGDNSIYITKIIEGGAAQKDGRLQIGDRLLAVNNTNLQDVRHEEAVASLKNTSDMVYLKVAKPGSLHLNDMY

T7: LRRC7, Q96NW7
T7 sequence (Q96NW7 1440-1537, limits assumed, looked up): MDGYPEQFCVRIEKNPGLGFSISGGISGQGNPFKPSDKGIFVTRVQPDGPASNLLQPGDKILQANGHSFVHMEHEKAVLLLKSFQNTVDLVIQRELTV

T8: RADIL, Q96JH8
T8 sequence (Q96JH8 971-1071, limits assumed, looked up): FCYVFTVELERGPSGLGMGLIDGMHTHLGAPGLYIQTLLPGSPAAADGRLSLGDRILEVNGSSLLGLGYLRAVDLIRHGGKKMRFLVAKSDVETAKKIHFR

T9: APBA2_2, Q99767
T9 sequence (Q99767 654-744, limits assumed, looked up): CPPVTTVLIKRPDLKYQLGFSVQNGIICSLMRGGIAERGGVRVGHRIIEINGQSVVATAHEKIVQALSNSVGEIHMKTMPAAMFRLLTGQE

T10: SIPA1L2, Q9P2F8
T10 sequence (Q9P2F8 945-1036, limits assumed, looked up): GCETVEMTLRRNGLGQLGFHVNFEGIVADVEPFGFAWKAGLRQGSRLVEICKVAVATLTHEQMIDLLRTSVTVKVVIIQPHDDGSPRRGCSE

T11: NHERF3_4, Q5T2W1
T11 sequence (Q5T2W1 373-468, limits assumed, looked up): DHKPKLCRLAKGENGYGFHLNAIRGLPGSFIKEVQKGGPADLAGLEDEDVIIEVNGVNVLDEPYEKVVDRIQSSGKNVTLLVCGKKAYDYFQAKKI

T12: TIAM2, Q8IVF5
T12 sequence (Q8IVF5 885-986, limits assumed, looked up): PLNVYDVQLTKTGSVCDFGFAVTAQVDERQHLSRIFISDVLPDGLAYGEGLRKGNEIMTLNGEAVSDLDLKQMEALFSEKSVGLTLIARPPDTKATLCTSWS

T13: MPP2, Q14168
T13 sequence (Q14168 180-250, limits assumed, looked up): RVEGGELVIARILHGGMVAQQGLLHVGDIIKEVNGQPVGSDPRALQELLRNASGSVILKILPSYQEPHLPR


Legend:
Experiment in all cases: holdup assay
Design in all cases: key: below the threshold = too weak to quantify, mostly under pKd 3.1 to 4
Conditions in all cases: plain residues with an end cap or a label only (N-terminal biotin on a linker: ado-ado)
[1] = target: LNX1_2, Q8TBB1
[2] = target: T1, LNX2_2, Q8N448
[3] = target: T2, APBA2_1, Q99767
[4] = target: T3, APBA1_2, Q02410
[5] = target: PDLIM1, O00151
[6] = target: T4, FRMPD1, Q5SYB0
[7] = target: T5, GRIP1_5, Q9Y3R0
[8] = target: NOS1, P29475
[9] = target: T6, DLG3_2, Q92796
[10] = target: MAGI2_5, Q86UL8
[11] = target: T7, LRRC7, Q96NW7
[12] = target: FRMPD3, Q5JV73
[13] = target: TJP1_2, Q07157
[14] = target: MAST2, Q6P0Q8
[15] = target: Inadl_6, Q8NI35
[16] = target: T8, RADIL, Q96JH8
[17] = target: GRIP2_5, Q9C0E4
[18] = target: T9, APBA2_2, Q99767
[19] = target: DLG4_1, P78352
[20] = target: T10, SIPA1L2, Q9P2F8
[21] = target: MAGI2_4, Q86UL8
[22] = target: T11, NHERF3_4, Q5T2W1
[23] = target: T12, TIAM2, Q8IVF5
[24] = target: T13, MPP2, Q14168
[25] = target: SCRIB_3, Q14160
SCRIB_3, Q14160, sequence (Q14160 999-1103): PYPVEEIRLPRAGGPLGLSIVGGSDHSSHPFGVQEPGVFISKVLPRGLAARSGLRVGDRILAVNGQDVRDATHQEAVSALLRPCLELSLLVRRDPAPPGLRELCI

GRIP2_5, Q9C0E4, sequence (Q9C0E4 544-642): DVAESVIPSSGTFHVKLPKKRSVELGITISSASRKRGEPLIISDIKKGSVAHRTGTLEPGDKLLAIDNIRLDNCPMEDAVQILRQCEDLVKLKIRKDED
TJP1_2, Q07157, sequence (Q07157 181-274): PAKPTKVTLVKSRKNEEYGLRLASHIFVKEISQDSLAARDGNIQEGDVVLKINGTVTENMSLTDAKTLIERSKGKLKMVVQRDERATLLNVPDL
FRMPD3, Q5JV73, sequence (Q5JV73 12-100): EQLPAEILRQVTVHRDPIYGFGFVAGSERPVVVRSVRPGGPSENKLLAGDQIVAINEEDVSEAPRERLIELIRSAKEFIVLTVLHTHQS
MAGI2_4, Q86UL8, sequence (Q86UL8 772-865): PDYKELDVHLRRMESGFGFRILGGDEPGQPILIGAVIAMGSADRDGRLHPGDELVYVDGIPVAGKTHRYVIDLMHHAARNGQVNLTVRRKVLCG
NOS1, P29475, sequence (P29475 9-101): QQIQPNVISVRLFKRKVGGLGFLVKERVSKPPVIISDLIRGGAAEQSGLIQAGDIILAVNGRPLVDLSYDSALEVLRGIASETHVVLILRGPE
MAGI2_5, Q86UL8, sequence (Q86UL8 915-1017): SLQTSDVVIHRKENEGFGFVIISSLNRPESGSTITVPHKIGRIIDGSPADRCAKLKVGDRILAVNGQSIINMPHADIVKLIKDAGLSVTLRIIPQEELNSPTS
DLG4_1, P78352, sequence (P78352 62-152): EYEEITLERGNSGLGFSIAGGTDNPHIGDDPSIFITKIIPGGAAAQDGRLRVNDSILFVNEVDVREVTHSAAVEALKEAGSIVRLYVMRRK
LNX1_2, Q8TBB1, sequence (Q8TBB1 371-470): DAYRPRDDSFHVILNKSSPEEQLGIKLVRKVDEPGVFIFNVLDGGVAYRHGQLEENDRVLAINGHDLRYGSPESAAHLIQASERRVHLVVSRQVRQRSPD
Inadl_6, Q8NI35, sequence (Q8NI35 1058-1167): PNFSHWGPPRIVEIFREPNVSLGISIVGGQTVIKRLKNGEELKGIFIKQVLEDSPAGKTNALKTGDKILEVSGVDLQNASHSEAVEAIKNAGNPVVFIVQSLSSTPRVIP
MAST2, Q6P0Q8, sequence (Q6P0Q8 1099-1202): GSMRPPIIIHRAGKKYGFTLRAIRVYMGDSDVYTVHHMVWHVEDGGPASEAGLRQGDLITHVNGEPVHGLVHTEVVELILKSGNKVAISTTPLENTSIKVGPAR
PDLIM1, O00151, sequence (O00151 1-87): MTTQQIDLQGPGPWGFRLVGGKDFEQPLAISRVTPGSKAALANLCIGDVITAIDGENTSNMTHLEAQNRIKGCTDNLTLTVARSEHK

pKd [1]	pKd [2]	pKd [3]	pKd [4]	pKd [5]	pKd [6]	pKd [7]	pKd [8]	pKd [9]	pKd [10]	pKd [11]	pKd [12]	pKd [13]	pKd [14]	pKd [15]	pKd [16]	pKd [17]	pKd [18]	pKd [19]	pKd [20]	Binder	further results
3.88	3.76	below the threshold	below the threshold	below the threshold	below the threshold	below the threshold	below the threshold	4.23	below the threshold	below the threshold	below the threshold	4.06	4.9	below the threshold	3.52	below the threshold	below the threshold	below the threshold	below the threshold	ELSATVTTDC [TRIP6, Q15654]	pKd [21]: below the threshold; pKd [22]: below the threshold; pKd [23]: below the threshold; pKd [24]: below the threshold; pKd [25]: 4.24
below the threshold	below the threshold	below the threshold	3.89	3.57	below the threshold	below the threshold	below the threshold	below the threshold	below the threshold	below the threshold	below the threshold	below the threshold	4.73	3.65	3.59	below the threshold	below the threshold	below the threshold	below the threshold	DDASLPVSDV [PLEKHA1, Q9HB21]	pKd [21]: below the threshold; pKd [22]: below the threshold; pKd [23]: below the threshold; pKd [24]: below the threshold; pKd [25]: 4.1
3.53	4.91	below the threshold	4.17	below the threshold	below the threshold	below the threshold	3.7	5.19	4.73	3.96	below the threshold	below the threshold	5.21	3.56	4.52	below the threshold	below the threshold	4.64	below the threshold	PPGKHLVTEV [KCNA7, Q96RP8]	pKd [21]: 4.48; pKd [22]: below the threshold; pKd [23]: 4.01; pKd [24]: below the threshold; pKd [25]: 4.56
